This is an account of results in article PMC4930773, “Cataract-causing mutation S228P promotes βB1-crystallin aggregation and degradation by separating two interacting loops in C-terminal domain” (Protein & Cell, 2016).

The assay has as its target T1, wild type βB1-crystallin (human, UniProt P53674 1-252).
T1 construct: human βB1-crystallin (CRYBB1), cloned from a human lens cDNA library into pET28a; no cleavage of the tag is described; also called WT βB1; WT; source: E. coli BL21 (DE3), purified (Ni-NTA, Superdex 200 gel filtration); not shown: His tag, N-terminal, kept
T1 sequence (looked up): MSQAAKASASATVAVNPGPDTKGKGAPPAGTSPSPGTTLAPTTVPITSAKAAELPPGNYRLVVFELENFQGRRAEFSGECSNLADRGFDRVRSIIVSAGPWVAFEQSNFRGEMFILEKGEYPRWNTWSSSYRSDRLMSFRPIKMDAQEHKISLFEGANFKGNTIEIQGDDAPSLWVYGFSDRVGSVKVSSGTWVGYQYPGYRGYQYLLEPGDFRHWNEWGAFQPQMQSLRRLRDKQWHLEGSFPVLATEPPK
The assay can be described thus: SEC; equal molar homomers mixed and incubated at 37°C, aggregates removed by centrifugation; Superdex 200, buffer A (20 mmol/L sodium phosphate, 150 mmol/L NaCl, 1 mmol/L EDTA, 1 mmol/L DTT, pH 7.0), 30 µmol/L protein; SDS-PAGE of soluble and insoluble fractions alongside. Particulars: both partners purified. On the technique in general: SEC sorts molecules by how far they enter the pores of the column.

B1: βA3-crystallin (natural protein, human, UniProt P05813 1-215, looked up)
chain: METQAEQQELETLPTTKMAQTNPTPGSLGPWKITIYDQENFQGKRMEFTSSCPNVSERSFDNVRSLKVESGAWIGYEHTSFCGQQFILERGEYPRWDAWSGSNAYHIERLMSFRPICSANHKESKMTIFEKENFIGRQWEISDDYPSLQAMGWFNNEVGSMKIQSGAWVCYQYPGYRGYQYILECDHHGGDYKHWREWGSHAQTSQIQSIRRIQQ
notes: source: E. coli BL21 (DE3), purified (Ni-NTA, Superdex 200 gel filtration)
As for B1, the binding result is “binds”.
